This experiment addresses VP4 coated on microplates (indirect blocking ELISA) (Rotavirus A, simian strain SA11 …, UniProt A2T3T2). The experiment in a line: ELISA. A general note: An ELISA detects its analyte on a solid surface through an enzyme-linked reagent.

B1: m41# (engineered mouse Fc version of 41#) (antibody, V domains shown)
VH: EVQLVESGGGPVQPGGSLKLSCAASGFTFSNYEMYWVRQAPGKGLEWVSYISTSPAITYYADSVRGRFTISRDNAKSSLYLHMNSLRAEDTAVYYCATISHQQFSSGWNAWFDPWGQGTLVTVSG
VL: NFMLTQPHSVSESPGKTVTISCTGSSGSIASNYVQWYRQRPGSAPTTVIYENYQRPSGVPARFSGSIDRSSNSASLTISGLQTDDEADYYCQSYDNNNLWVFGGGTKLTVL
Consider B1, for which the binding result is “binds”.

B2: C7H13 (chimeric antibody: variable regions of 7H13 in a human antibody framework) (antibody, V domains shown)
VH: QVQLKESGPGLVAPSQSLSITCTVSGFSLSRYSVHWVRQPPGKGLEWLGMIWNIGSTDYNSALKSRLSISKDNSQSQVFLKLNSLQTDDAAIYYCARNSGFDLFDFWGQGTTLTVS
VL: DIVMTQSHKFMSTSVGDRVSITCKASQDVTSAVAWYQQKPGQSPKLLISSASYRYTGVPDRFSGSGSGTDFTFTISSVQAEDLAVYYCQQHYSTPPTFGAGTKLELK
Consider B2, for which the binding result is listed as “binds”.

(Values after PMC11746992 (Nature Communications, 2025).)
